Measurements taken from the supplement of paper PMC10201428.
± gives the standard deviation of the averaged measurements.

B1: library; a variant is named by its letters at N, in order (parent)
chain: AATGTTGTTGATGCAACCATAAAGTGATATTTAATAATTATTTATAATCAGCAACTTAACCACAAAACAACCATATATTGATATNTCACAAAACAACCATAANTTGATATTTTTGTGAATCGAGTATTTCAGCAAAACTACTGCAGTAAGAA

Assays:
[1] = variants of: B1; assay: relative integration efficiency (T-LR orientation) vs wild-type transposon end (log2 (normalized fold change)); transposon end mutated: left end; higher = more efficient transposition; conditions: with VchCAST RNA-guided transposition machinery (E. coli BL21(DE3) host, lacZ target)
Procedure, shortened: (§1)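 Relative integration efficiency is a fold change of output over input barcode abundance, normalised to reference barcodes and log-transformed. Input plasmids and genomic integration junctions were PCR-amplified and Illumina-sequenced from E. coli BL21(DE3) co-transformed with a T7-driven effector plasmid and pUC57 donor pools of 1549 left-end or 1849 right-end transposon variants. Plating was done with 0.1 mM IPTG at 37°C for 18 h, with two biological output replicates and four reference barcodes.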

[2] = variants of: B1; assay: relative integration efficiency (T-RL orientation) vs wild-type transposon end (log2 (normalized fold change)); transposon end mutated: left end; higher = more efficient transposition; conditions: with VchCAST RNA-guided transposition machinery (E. coli BL21(DE3) host, lacZ target)
Procedure, shortened: as §1

| Variant | relative integration efficiency (log2) [1] | relative integration efficiency (log2) [2] |
| --- | --- | --- |
| AATGTTGTTGATGCAACCATAAAGTGATATTTAATAATTATTTATAATCAGCAACTTAACCACAAAACAACCATCGATTGATATCTCACAAAACAACCATAAGTTGATATTTTTGTGAATCGAGTATTTCAGCAAAACTACTGCAGTAAGAA | -2.22 ± 0.87 | -1.59 ± 0.54 |
| AATGTTGTTGATGCAACCATAAAGTGATATTTAATAATTATTTATAATCAGCAACTTAACCACAAAACAACCATATATTGATATCTCACAAAACAACCATAAGTTGATATTTTGTGTAATCGAGTATTTCAGCAAAACTACTGCAGTAAGAA | -0.295 ± 0.33 | -0.309 ± 0.015 |
| AATGTTGTTGATGCAACCATAAAGTGATATTTAATAATTATTTATAATCAGCAACTTAACCACAAAACAACCATATATTGATATCTCACAAAACAACCATAAGTTGATATTTTTGTGAACCGAGTATTTCAGCAAAACTACTGCAGTAAGAA | -0.00648 ± 0.1 | -0.131 ± 0.053 |
| AATGTTGTTGATGCAACCATAAAGTGATATTTAATAATTATTTATAATCAGCAACTTAGCCACAAAACAACCATATATTGATATCTCACAAAACAACCATAAGTTGATATTTTTGTGAATCGAGTATTTCAGCAAAACTACTGCAGTAAGAA | 0.164 ± 0.45 | -0.0472 ± 0.057 |
| AATGTTGTTGATGCAACCATAAAGTGATATTTAATAATTATTTATAATCAGGTTGTTAACCACAAAACAACCATATATTGATATCTCACAAAACAACCATAAGTTGATATTTTTGTGAATCGAGTATTTCAGCAAAACTACTGCAGTAAGAA | 0.133 ± 0.24 | 0.0283 ± 0.2 |
| AATGTTGTTGATGCAACCATAAAGTGATATTTAATAATTATTTATAATCAGACACTTAACCACAAAACAACCATATATTGATATCTCACAAAACAACCATAAGTTGATATTTTTGTGAATCGAGTATTTCAGCAAAACTACTGCAGTAAGAA | 0.0739 ± 0.63 | -0.177 ± 0.1 |
| AATGTTGTTGATGCAACCATAAAGTGATATTTAATAATTATTTATAATCAGCAACTTAACCACAAAACAACCATATATTGATATCTCACAAATGAACCATAAGTTGATATTTTTGTGAATCGAGTATTTCAGCAAAACTACTGCAGTAAGAA | -1.04 ± 0.89 | -1.35 ± 0.65 |
| AATGTTGTTGATGCAACCATAAAGTGATATTTAATAATTATTTATAATCAGCTTCTTAACCACAAAACAACCATATATTGATATCTCACAAAACAACCATAAGTTGATATTTTTGTGAATCGAGTATTTCAGCAAAACTACTGCAGTAAGAA | -0.0995 ± 0.047 | -0.0854 ± 0.17 |
| TTACATGTTGATGCAACCATAAAGTGATATTTAATAATTATTTATAATCAGCAACTTAACCACAAAACAACCATATATTGATATCTCACAAAACAACCATAAGTTGATATTTTTGTGAATCGAGTATTTCAGCAAAACTACTGCAGTAAGAA | -0.0748 ± 0.54 | 0.103 ± 0.061 |
| AATGTTGTTGATGCAACCAAAAAGTGATATTTAATAATTATTTATAATCAGCAACTTAACCACAAAACAACCAAATATTGATATCTCACAAAACAACCAAAAGTTGATATTTTTGTGAATCGAGTATTTCAGCAAAACTACTGCAGTAAGAA | -1.01 ± 0.38 | -1.12 ± 0.54 |
| AATGTTGTTGATGCAACCATAAAGTGAGATTTAATAATTATTTATAATCAGCAACTTAACCACAAAACAACCATATATTGAGATCTCACAAAACAACCATAAGTTGAGATTTTTGTGAATCGAGTATTTCAGCAAAACTACTGCAGTAAGAA | -3.23 ± 3.2 | -2.28 ± 0.9 |
| AATGTTGTTGATGCAACCATAAAGTGATATTTAATAATTAGGTATAATCAGCAACTTAACCACAAAACAACCATATATTGATATCTCACAAAACAACCATAAGTTGATATTTTTGTGAATCGAGTATTTCAGCAAAACTACTGCAGTAAGAA | 1.22 ± 0.23 | 0.0624 ± 0.23 |
| AATGTTGTTGATGCAACCATAAAGTGATATTTAATAATTATTTATAATCAGCAACTTAACCACAAAACAACCATATATTGATATCTCACAAAACAACCATAAGTTGATGTTTTTGTGAATCGAGTATTTCAGCAAAACTACTGCAGTAAGAA | -0.737 ± 0.88 | -0.662 ± 0.16 |
| AATGTTGTTGATGCAACCATAAAGTGATATTTAATAATTATTTATAATCAGCAACTTAACCACAAAACAACCATATATTGATATCTCACAAAACAACCATCAGTTGATATTTTTGTGAATCGAGTATTTCAGCAAAACTACTGCAGTAAGAA | -1.67 ± 0.92 | -1.29 ± 0.49 |
| AATGTTGTAGATGCAACCATAAAGTGATATTTAATAATTATTTATAATCAGCAACTTAACCACAAAACAACCATATATTGATATCTCACAAAACAACCATAAGTTGATATTTTTGTGAATCGAGTATTTCAGCAAAACTACTGCAGTAAGAA | -0.191 ± 0.61 | -0.00405 ± 0.092 |
| AATGTTGTTGATGCAACCATAAAGTGATATTTAATAATTATTTATAATCAACAACTTAACCACAAAACAACCATATATTGATATCTCACAAAACAACCATAAGTTGATATTTTTGTGAATCGAGTATTTCAGCAAAACTACTGCAGTAAGAA | 0.634 ± 0.19 | 0.302 ± 0.085 |
| AATGTTGTTGATGCAACCATAAATGGATATTTAATAATTATTTATAATCAGCAACTTAACCACAAAACAACCATATATTGATATCTCACAAAACAACCATAAGTTGATATTTTTGTGAATCGAGTATTTCAGCAAAACTACTGCAGTAAGAA | -0.649 ± 0.2 | -0.561 ± 0.34 |
| AATGTTGTTGATGCAACCATAGAGTGATATTTAATAATTATTTATAATCAGCAACTTAACCACAAAACAACCATATATTGATATCTCACAAAACAACCATAAGTTGATATTTTTGTGAATCGAGTATTTCAGCAAAACTACTGCAGTAAGAA | -1.1 ± 1.1 | -0.733 ± 0.88 |
| AATGTTGTTGATGCAACCATAAAGTGATATTTAATAATTATTTATAATCAGCAACTTAACCACAAAAACACCATATATTGATATCTCACAAAACAACCATAAGTTGATATTTTTGTGAATCGAGTATTTCAGCAAAACTACTGCAGTAAGAA | -0.147 ± 0.86 | -0.266 ± 0.23 |
